This is an account of results in article PMC2174052 (The Journal of Cell Biology, 2002).

Sequences and labels used below:
B1: GST–Sec2(aa 1–160)p (domain or fragment)
chain: MDASEEAKRVSIQVTSLSTQLIESVDKQSHLEEQLNKSLKTIASQKAAIENYNQLKEDYNTLKRELSDRDDEVKRLREDIAKENELRTKAEEEADKLNKEVEDLTASLFDEANNMVADARKEKYAIEILNKRLTEQLREKDTLLDTLTLQLKNLKKVMHS
B2: His6–Ypt32p (natural protein)
chain: MSNEDYGYDYDYLFKIVLIGDSGVGKSNLLSRFTTDEFNIESKSTIGVEFATRTIEVENKKIKAQIWDTAGQERYRAITSAYYRGAVGALIVYDISKSSSYENCNHWLTELRENADDNVAVGLIGNKSDLAHLRAVPTDEAKNFAMENQMLFTETSALNSDNVDKAFRELIVAIFQMVSKHQVDLSGSGTNNMGSNGAPKGPTISLTPAPKEDKKKKSSNCC
B3: His6–Sec4p (natural protein)
chain: MSGLRTVSASSGNGKSYDSIMKILLIGDSGVGKSCLLVRFVEDKFNPSFITTIGIDFKIKTVDINGKKVKLQLWDTAGQERFRTITTAYYRGAMGIILVYDVTDERTFTNIKQWFKTVNEHANDEAQLLLVGNKSDMETRVVTADQGEALAKELGIPFIESSAKNDDNVNEIFFTLAKLIQEKIDSNKLVGVGNGKEGNISINSGSGNSSKSNCC

One assay concerns the target T1, Ypt32p (Saccharomyces cerevisiae, UniProt P51996).
T1 sequence (P51996 2-222): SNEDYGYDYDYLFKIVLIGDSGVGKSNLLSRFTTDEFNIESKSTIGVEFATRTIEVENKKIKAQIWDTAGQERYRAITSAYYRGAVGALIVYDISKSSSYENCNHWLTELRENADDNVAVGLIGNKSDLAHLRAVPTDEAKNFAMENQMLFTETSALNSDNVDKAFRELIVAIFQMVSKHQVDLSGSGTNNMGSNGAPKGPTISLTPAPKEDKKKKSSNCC
The experiment in a line: GTP hydrolysis. In kind it is biochemical. Particulars: with stoichiometric Sec2p (GAP activity).

The assay “His6–Sec4p” addresses B3. The experiment in a line: pull-down.
In another assay the target is T2, GST–Sec2-59(aa 1–374)p (S. cerevisiae, UniProt P17065 1-374).
T2 sequence: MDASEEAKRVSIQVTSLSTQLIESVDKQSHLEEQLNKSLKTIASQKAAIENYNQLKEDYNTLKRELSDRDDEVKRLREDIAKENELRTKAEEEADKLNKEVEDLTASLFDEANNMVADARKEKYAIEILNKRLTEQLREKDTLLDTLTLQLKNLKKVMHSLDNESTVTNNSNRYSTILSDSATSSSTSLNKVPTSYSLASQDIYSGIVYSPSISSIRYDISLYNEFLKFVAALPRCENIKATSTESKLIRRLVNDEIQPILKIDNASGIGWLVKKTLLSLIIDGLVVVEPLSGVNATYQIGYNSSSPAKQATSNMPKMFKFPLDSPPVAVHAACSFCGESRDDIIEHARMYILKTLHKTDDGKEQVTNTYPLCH
The experiment in a line: pull-down.

The target in the next assay is T3, GST–Sec2(aa 161–759) (S. cerevisiae, UniProt P17065 161-759).
T3 sequence: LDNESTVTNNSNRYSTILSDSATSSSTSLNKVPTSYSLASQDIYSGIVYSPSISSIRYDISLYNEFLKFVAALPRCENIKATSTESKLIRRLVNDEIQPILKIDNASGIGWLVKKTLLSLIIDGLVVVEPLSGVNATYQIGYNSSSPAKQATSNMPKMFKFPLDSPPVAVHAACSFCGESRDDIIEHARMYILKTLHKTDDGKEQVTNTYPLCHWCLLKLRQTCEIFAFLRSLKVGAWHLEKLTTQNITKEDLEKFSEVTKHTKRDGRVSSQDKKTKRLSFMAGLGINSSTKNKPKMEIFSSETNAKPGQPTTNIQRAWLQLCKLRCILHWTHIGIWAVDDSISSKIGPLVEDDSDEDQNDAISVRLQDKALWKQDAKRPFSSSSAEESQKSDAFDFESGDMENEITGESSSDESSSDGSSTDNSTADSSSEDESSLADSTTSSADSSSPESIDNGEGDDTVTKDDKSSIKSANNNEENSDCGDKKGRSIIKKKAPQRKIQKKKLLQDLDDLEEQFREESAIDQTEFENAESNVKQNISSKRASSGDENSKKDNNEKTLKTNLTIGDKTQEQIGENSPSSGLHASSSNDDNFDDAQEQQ
The experiment in a line: pull-down.

Another assay has as its target T4, GST–Sec2-70 (aa 1–508) (S. cerevisiae, UniProt P17065 1-508).
T4 sequence: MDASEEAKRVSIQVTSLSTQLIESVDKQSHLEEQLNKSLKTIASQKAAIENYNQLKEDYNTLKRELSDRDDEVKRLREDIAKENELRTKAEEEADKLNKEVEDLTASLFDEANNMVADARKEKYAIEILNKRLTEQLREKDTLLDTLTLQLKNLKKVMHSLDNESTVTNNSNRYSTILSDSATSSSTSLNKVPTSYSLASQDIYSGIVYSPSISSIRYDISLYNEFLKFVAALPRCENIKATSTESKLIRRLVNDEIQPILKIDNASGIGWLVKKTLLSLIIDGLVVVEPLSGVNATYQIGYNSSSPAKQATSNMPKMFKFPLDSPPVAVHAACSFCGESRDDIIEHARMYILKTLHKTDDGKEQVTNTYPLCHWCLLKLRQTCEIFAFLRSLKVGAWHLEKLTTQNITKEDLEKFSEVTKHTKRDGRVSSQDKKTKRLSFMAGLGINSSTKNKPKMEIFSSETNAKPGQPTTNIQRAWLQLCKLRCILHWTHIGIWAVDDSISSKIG
The assay can be described thus: pull-down.

Another assay addresses T5, GST–Sec2p (full-length) (S. cerevisiae, UniProt P17065 1-759).
T5 sequence: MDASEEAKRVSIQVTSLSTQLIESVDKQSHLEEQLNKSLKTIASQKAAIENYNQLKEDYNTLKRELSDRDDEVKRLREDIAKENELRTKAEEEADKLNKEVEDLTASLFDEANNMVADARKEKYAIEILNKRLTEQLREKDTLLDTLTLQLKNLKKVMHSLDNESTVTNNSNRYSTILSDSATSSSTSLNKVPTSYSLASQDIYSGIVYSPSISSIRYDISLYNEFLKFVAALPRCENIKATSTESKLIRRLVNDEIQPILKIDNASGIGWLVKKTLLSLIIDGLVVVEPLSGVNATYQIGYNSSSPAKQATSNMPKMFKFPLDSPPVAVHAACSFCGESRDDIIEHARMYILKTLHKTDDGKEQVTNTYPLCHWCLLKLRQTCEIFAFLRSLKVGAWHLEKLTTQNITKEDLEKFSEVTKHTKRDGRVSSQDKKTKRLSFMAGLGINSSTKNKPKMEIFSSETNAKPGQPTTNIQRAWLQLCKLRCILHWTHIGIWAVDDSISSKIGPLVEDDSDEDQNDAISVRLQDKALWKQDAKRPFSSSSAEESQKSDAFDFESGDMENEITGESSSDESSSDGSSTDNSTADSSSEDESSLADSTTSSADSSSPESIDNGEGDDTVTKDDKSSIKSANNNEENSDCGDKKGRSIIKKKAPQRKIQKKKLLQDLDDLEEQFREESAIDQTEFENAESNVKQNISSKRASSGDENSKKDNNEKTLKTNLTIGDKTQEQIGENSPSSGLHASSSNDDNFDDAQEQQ
The assay can be described thus: pull-down.

For `Nc1nc2c(ncn2[C@@H]2O[C@H](COP(=O)(O)OP(=O)(O)OP(=O)(O)O)[C@@H](O)[C@H]2O)c(=O)[nH]1` [GTP], at Ypt32p, the GTP hydrolysis result was “we observed a fivefold increase in GTP hydrolysis by Ypt32p (unpublished data)”. For the molecule B1, the binding result with His6–Sec4p was “binds”. With B2, the binding result with GST–Sec2-59(aa 1–374)p, in the assay with GST–Sec2(aa 161–759), with GST–Sec2-70 (aa 1–508) and in the assay with GST–Sec2p (full-length) was “binds” throughout. As to B3, in the assay with GST–Sec2p (full-length), the “amount bound relative to Ypt32p (fold)” value stood at 4 fold.
